Results on three molecules are retold here after US20070026510A1, “Process for biochemical production of glyoxylic acid” (Kaneka Corporation, priority 2003, published 2007).

A short description of data set [1]: Oxidase activity to glyoxal (H2O2 detection with 4-AA/TOOS/POD, absorbance 555 nm). The format is biochemical. The note with it: for Activity to glyoxal/activity to glyoxylic acid: 10 mM substrate, 30° C., 100 mM phosphate buffer pH 7; for Relative activity (%): substrate glyoxal (reference = 100), enzymes of the invention. Here is the method: When the reaction is catalyzed by oxidase, not only glyoxylic acid but also hydrogen peroxide is produced. Oxidase activity of interest can easily be detected by detecting such hydrogen peroxide.
Specifically, 0.1 ml of cell suspension or enzyme solution is added to 0.9 ml of a 100 mM phosphate buffer (pH 7) having the composition indicated below, and an increase in the absorbance at a wavelength of 555 nm is measured at 30° C. In the present invention, enzyme activity for generating 1 μmol H2O2 per minute is defined as 1 unit.
(§1) The cell-free extract of each of KNK235 and KNK058 obtained by the method described in Example 1 was charged to a Resource Q column (6 ml) that had previously been equilibrated with a 0.05 M phosphate buffer (pH 7), and the enzyme was eluted with a linear concentration gradient of sodium chloride from 0 to 0.5 M, so as to collect active fractions. Roughly purified enzyme solutions of these KNK235 and KNK058 and purified enzymes obtained from Streptomyces sp. KNK269, Microbacterium sp. KNK011, and Cellulosimicrobium cellulans IFO 15516, obtained in Examples 4, 5, and 7, respectively, were measured in terms of their oxidase activity to glyoxal and to glyoxylic acid. Measurement of the enzyme activity was carried out by the following method. That is, 1.0 ml of a reaction solution comprising 10 mM glyoxal or glyoxylic acid, 0.67 mM 4-AA, 1.09 mM TOOS, 2 U/ml POD, and a roughly purified enzyme from KNK235 or KNK058, or a purified enzyme obtained from NKN269, KNK011, or IFO 15516 in Example 4, 5, or 7, was reacted at 30° C. in a 100 mM phosphate buffer (pH 7). Thereafter, an increase in the absorbance at a wavelength of 555 nm was measured.

Data set [2] can be described thus: Oxidase activity to glyoxylic acid (H2O2 detection with 4-AA/TOOS/POD, absorbance 555 nm). The format is biochemical. The conditions noted are these: substrate glyoxylic acid, relative to glyoxal = 100; enzymes of the invention. Here is the method:
as §1

The nature of data set [3]: Conversion of glyoxal into glyoxylic acid by purified enzymes, HPLC. The conditions noted are these: 0.2 U/ml enzyme, 50 mM glyoxal, 5,000 U/ml catalase, 100 mM Tris-HCl, 30° C., 3 hours. The format is biochemical. Here is the method: Each of the enzymes derived from Streptomyces sp. KNK269, Microbacterium sp. KNK011, Pseudomonas sp. KNK058, and Cellulosimicrobium cellulans IFO 15516, which were obtained in Examples 4, 5, 6, and 7, respectively, was reacted using glyoxal as a substrate. That is, 1 ml of 100 mM Tris-HCl buffer comprising 0.2 U/ml enzyme derived from each of the above strains, 50 mM glyoxal, and 5,000 U/ml catalase, were placed in a test tube. It was then subjected to a shake reaction at 30° C. for 3 hours. After completion of the reaction, the reaction solution was analyzed by high performance liquid chromatography.

Data set [4] is described as follows: Heat stability of purified enzyme (remaining activity). The format is physicochemical. The conditions noted are these: 0.05 M phosphate buffer pH 7.2, 20 minutes, treatment at 70° C. (FIG. 3). Here is the method: as §1, with “measured. […]” for “measured.”
The present enzyme was treated in a 0.05 M phosphate buffer (pH 7.2) at each temperature from 30° C. to 70° C. for 20 minutes. Thereafter, the remaining activity of the present enzyme was measured using glyoxal as a substrate.

In the case of “KNK011-derived enzyme: aldehyde oxidase purified from Microbacterium sp. KNK011; SEQ ID NOS: 7 and 8”, in data set [1], the “Activity to glyoxal/activity to glyoxylic acid” value (“Activity to glyoxal/activity” for short) is recorded as 183 and the “Relative activity (%)” value is 100%. In addition, the “Relative activity (%)” value in data set [2] amounted to 0.5%. Further, the glyoxylic acid generated in data set [3] is reported as 25 mM.
Consider “IFO15516-derived enzyme: aldehyde oxidase purified from culture supernatant of Cellulosimicrobium cellulans IFO 15516; SEQ ID NOS: 11 and 12”, for which, in data set [1], the “Activity to glyoxal/activity” value is on record as 100 and the “Relative activity (%)” value is given as 100%. For the same molecule, the “Relative activity (%)” value in data set [2] worked out at 1%. The molecule also returned a glyoxylic acid generated in data set [3] of 26 mM.

B1: KNK269-derived enzyme: aldehyde oxidase purified from Streptomyces sp. KNK269; three subunits, SEQ ID NOS: 1 to 3 (protein)
chain 1: GADLEPEPVVDEHSTVTLNVNGDPTTLTVDHRTTVLETLRESFGLTGAKKGCDHGQCGACTVLVDGRRVNSCLLLAVAQDGATITTVEGLADGEDLHPVQRAFVERDALQCGFCTPGQICSAVGMLREAADGHPSHVTGPDTAAGPDAATGPGGPVALDADEIRERMSGNIFRCGAYHRIVEAIEDVIE
chain 2: MKPFGYVRPASPDEAVRLCAEGSGARFLGGGTNLVDLMKLGVEAPRVLIDVAGLPLDRVTRTADGGLAIGATVRNSDLAAHPDVTDRYPVLSQALLAGASGQLRNSATTGGNLLQRTRCRYFQDVSKPCNKRLPGSGCPARDGTHRDLAILGHSPECVATNPSDMAVALAALDATVVLLGPEGERAVPLTEFHRLPGENPDQDTAIRTGELITEVVLPPPAPGAATRYRKARDRASFAFALVSVAATLRVDAGRVEHATLAFGGVAHRPWRARRAEAELRGAPATPAVFQHALIAELAEARPLRDNVFKVDLARRLALDVLGELTERQPTRTG
chain 3: MTTRAPQFPGAPVVRREARDKVTGTARYAADRTPAGCLYAWTVPAAVAAGRVTAVRAVDALAVPGVHTVLTHDNAPELREPDDPILAVLQDDRVPHHGWPIALVIAESPEAARTGAGELHVEYARDEHDVTLTEDHPGLYTPEEANGGEPAVRVRGDVERALAASPVQVDATYRMVALHNHPMEPHAATAVRADGHLTVHDSSQGSTKVRESLAQAFGLAADRITVVSEHVGGGFGSKGTTRPQGVLAAMAAQHTGRPVKLVFPRAQLAEVVGHRAPTIQRVRLGADLDGVLTAVSHEVVTQTSTVKEFVEQAAVPARVMYASPHSRTAHRVTALDVPSPSWMRAPGEASGMYALESAMDVLDSALGLDPVELRLRNEPETEPDSGRPFSSRGLAACLRDGAARFGWQDRDPRPAARQEGRWLIGTGVASATYPVLLSRSTASAHATRDGDLSIAVNATDIGTGARTVLAQIAADVLGVAPEALRVDIGSTDLPAAPLAGGSSGTASWGWSVHKAATALAARLAEHRGPLPADGITTTADTGQETGEESPYARHAFGAHFAETAVDAVTGEVRVRRLLGVYAAGRILNERTARSQFTGGMVMGIGMALTEGCGIDPGFGDFTAKDLASYHVPVCADTADIQAHWIEEDDRHLNPMGSKGIGEIGIVGTAAAIGNAVRHATGARLRELPLTTDT
modifications: Streptomyces sp. KNK269; amino acid sequence of subunit gamma of aldehyde oxidase; amino acid sequence of subunit beta of aldehyde oxidase; amino acid sequence of subunit alpha of aldehyde oxidase
As for B1, in data set [1], the “Activity to glyoxal/activity” value is listed as 1,710 and the “Relative activity (%)” value is recorded as 100%. Also, the “Relative activity (%)” value in data set [2] was found to be 0.1%. In addition, in data set [4], the “remaining activity after heat treatment” value is recorded as ≥ 90%. In data set [3], this molecule yielded a glyoxylic acid generated of 7.6 mM.
